Target: 2b-3×Flag (pGD-2b-3×Flag) (cucumber mosaic virus (CMV)) (UniProt Q66125)

In the case of “VISP1-GFP (pGDGm-VISP1-GFP) (natural protein)”, the accumulation of 2b-Flag co-expressed with VISP1-Myc, relative to empty vector (immunoblot, N. benthamiana leaves, 60 hpi) is reported as 0.11 fold.
